Biological target: T1, mCAT-1 receptor expressed on HEK 293 cells (stable cell line) (mouse, UniProt Q09143 1-622)
T1 construct: whole, on cells
Assay: fluorescence microscopy, counting of green fluorescent Mo-NP bound per cell after 2.5 h at 37 C; 120 cells per cell line

T1 sequence (Q09143 whole entry): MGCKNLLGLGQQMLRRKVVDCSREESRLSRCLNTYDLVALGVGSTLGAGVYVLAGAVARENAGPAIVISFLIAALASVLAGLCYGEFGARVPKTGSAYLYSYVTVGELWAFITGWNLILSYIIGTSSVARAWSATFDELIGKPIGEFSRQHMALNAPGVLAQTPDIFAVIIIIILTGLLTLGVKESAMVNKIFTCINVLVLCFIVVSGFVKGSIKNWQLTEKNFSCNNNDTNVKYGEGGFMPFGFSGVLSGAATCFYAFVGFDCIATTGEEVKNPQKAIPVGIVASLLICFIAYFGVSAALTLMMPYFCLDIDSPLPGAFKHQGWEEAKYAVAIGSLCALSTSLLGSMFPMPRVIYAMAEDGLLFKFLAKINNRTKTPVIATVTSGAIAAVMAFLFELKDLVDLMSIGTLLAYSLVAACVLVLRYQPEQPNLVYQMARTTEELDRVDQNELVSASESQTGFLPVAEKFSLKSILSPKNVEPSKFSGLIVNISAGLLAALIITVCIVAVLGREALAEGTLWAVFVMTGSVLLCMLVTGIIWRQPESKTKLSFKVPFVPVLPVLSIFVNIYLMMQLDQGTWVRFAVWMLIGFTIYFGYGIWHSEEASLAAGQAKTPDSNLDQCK

B1: Moloney murine leukemia virus (Mo-MLV) envelope protein, in virus membranes coated onto 100 nm carboxylate-modified fluorescent nanoparticles (Mo-NP) (other)
chain: ASPGSSPHQVYNITWEVTNGDRETVWATSGNHPLWTWWPDLTPDLCMLAHHGPSYWGLEYQSPFSSPPGPPCCSGGSSPGCSRDCEEPLTSLTPRCNTAWNRLKLDQTTHKSNEGFYVCPGPHRPRESKSCGGPDSFYCAYWGCETTGRAYWKPSSSWDFITVNNNLTSDQAVQVCKDNKWCNPLVIRFTDAGRRVTSWTTGHYWGLRLYVSGQDPGLTFGIRLRYQNLGPRVPIGPNPVLADQQPLSKPKPVKSPSVTKPPSGTPLSPTQLPPAGTENRLLNLVDGAYQALNLTSPDKTQECWLCLVAGPPYYEGVAVLGTYSNHTSAPANCSVASQHKLTLSEVTGQGLCIGAVPKTHQALCNTTQTSSRGSYYLVAPTGTMWACSTGLTPCISTTILNLTTDYCVLVELWPRVTYHSPSYVYGLFERSNRHKREPVSLTLALLLGGLTMGGIAAGIGTGTTALMATQQFQQLQAAVQDDLREVEKSISNLEKSLTSLSEVVLQNRRGLDLLFLKEGGLCAALKEECCFYADHTGLVRDSMAKLRERLNQRQKLFESTQGWFEGLFNRSPWFTTLISTIMGPLIVLLMILLFGPCILNRLVQFVKDRISVVQAL
notes: Native env in virus membranes released by osmotic shock and sonication, then extruded over nanoparticles; In the β-lactamase experiments the particle core also carried covalently coupled B. cereus penicillinase; also called Mo-nanoparticles; Mo env-coated nanoparticles
In the case of B1, the “fold more Mo-NP bound than by cells lacking the receptor” value is reported as 26 fold.
